The source of these data is patent publication US20070254316.

The subject of data set [1] is T1, R5-XC1 peptide (free peptide, CQKHHNYLC).
T1 sequence: CQKHHNYLC

Data set [2] has as its system T2, R4-C9 peptide (free peptide, CTLVPHTRC).
T2 sequence: CTLVPHTRC

“xPSM (extracellular portion of human PSMA, Tag-xPSM digested with enterokinase, no affinity tags)”: the “NAALADase activity (hydrolysis of N-acetyl-L-aspartyl-L-[3,4-3H]glutamate by purified xPSM)” value is “two selected PSMA binding peptides enhanced, rather than inhibited, enzyme activity in a dose dependant manner” in data set [1] and “two selected PSMA binding peptides enhanced, rather than inhibited, enzyme activity in a dose dependant manner” in data set [2].
